According to patent US20260256741A1, “ANTICANCER MALEIMIDE DERIVATIVES FOR USE WITH IMMUNE CHECKPOINT BLOCKADE” (BROWN UNIVERSITY, priority 2022, published 2026):

Columns and labels:
[1] = tested on: HCT-116 CRC cells; assay: Western blot analysis of HCT-116 CRC cells; assay type: cell-based, human; conditions: 250 ng/mL IFN-γ
Protocol: (§1) Recombinant Human TNF-α (Cat #300-01A, PeproTech, Rocky Hill, NJ, USA) and Recombinant Human IFN-γ (Cat #300-02, Peprotech, Rocky Hill, NJ, USA) were purchased for use in western blot analysis while rhTRAIL was generated in-house. Kim et al., J Biol Chem., 279(38):40044-52 (2004).
(§2) Cells were plated in a 6-well plate and incubated overnight before the spent media was replaced with drugged media. Drug treatment lasted for indicated durations. Protein was extracted using radioimmunoprecipitation (RIPA) assay buffer (Cat #R0278, Sigma-Aldrich, St. Louis, MO) containing cOmplete™, Mini, EDTA-free Protease Inhibitor Cocktail (Cat #4693159001, Roche, Basel, Switzerland) from sub-confluent cells. Denaturing sample buffer was added, samples were boiled at 95 degrees for 10 minutes, and an equal amount of protein lysate was electrophoresed through NuPAGE™ 4 to 12%, Bis-Tris, 1.5 mm, Mini Protein Gels (Invitrogen, Waltham, MA) then transferred to PVDF membranes. The PVDF membrane was blocked with 5% non-fat milk (Sigma-Aldrich, St. Louis, MO) in 1×TTBS. Primary antibodies were incubated with the transferred PVDF membrane in blocking buffer at 4° C. overnight. Secondary antibodies used included Goat anti-Rabbit IgG (H+L) Secondary Antibody, HRP (Cat #31460, Invitrogen, Waltham, MA), and Goat anti-Mouse IgG (H+L) Secondary Antibody, HRP (Cat #31430, Invitrogen, Waltham, MA). Signal was detected using Pierce™ ECL Western Blotting Substrate (Cat #32106, Thermo Scientific, Waltham, MA, USA) and a Syngene Imaging System (RRID: SCR_015770).

[2] = tested on: HT-29 CRC cells; assay: Western blot analysis of HT-29 CRC cells; assay type: cell-based, human; conditions: 250 ng/mL IFN-γ
Protocol: as §1, §2

B1: IFN-γ: Recombinant Human IFN-γ (Peprotech) used to treat tumor cells for western blot (protein, UniProt P01579 24-161, looked up)
Interferon gamma: QDPYVKEAENLKKYFNAGHSDVADNGTLFLGILKNWKEESDRKIMQSQIVSFYFKLFKNFKDDQSIQKSVETIKEDMNVKFFNSNKKKRDDFEKLTNYSVTDLNVQRKAIHELIQVMAELSPAAKTGKRKRSQMLFRG
With B1 the “gasdermin B expression” value [1] was “increase in gasdermin B expression” and the “gasdermin B expression” value [2] was “increase in gasdermin B expression”.
